We go through 14 molecules from patent US6642007 (Pfizer, dated 2003).

Experiment [1] deals with T1, biotinylated peptide of SEQ ID NO: 19.
T1 construct: Captured on a streptavidin biosensor chip; also called biotinylated peptide 054
T1 peptide: Biotin-GEPGDDGPS
Nature of the experiment: ELISA-positive hybridoma supernatant, BIAcore over biotinylated peptide SEQ ID NO: 19 on streptavidin chip. The method, then: Positive wells were subjected to a second round of selection on the BlAcore™ system for those which had antibodies giving the slowest off-rates. Streptavidin (Pierce Chemical) at 100 µg/ml was conjugated using the Pharmacia Amine Coupling Kit (Pharmacia Biosensor) to carboxylated dextran coated biosensor chips (Pharmacia Biosensor) at pH 4.0 using a flow rate of 5 µl/minute for 35 minutes. Typically, 2000 RU was added. Peptide (100 ng/ml), biotinylated on residue 1 of SEQ ID NO: 19 as set forth in the Sequence Listing, was passed over the streptavidin chip at a flow rate of 100 µl/minute for 10 seconds. Supernatants containing antibody were passed over the chip (2 µl/minute for 30 seconds) and the amount of added antibody noted. The buffer was changed to HBS (Pharmacia Biosensor), and the dissociation rate noted for the next 80 seconds. The chip was cleaned with 0.1 N HCl for 30 seconds between each run to remove antibody and to get rid of any nonspecific binding. The off-rates were determined using the BlAevaluation™ software version 2.1.
(In general: In an ELISA, binding on a coated surface is turned into a signal by an enzyme label.)

The target in experiment [2] is T2, biotinylated peptide 225 (SEQ ID NO: 64) (biotinylated (position not given)).
T2 construct: Collagen-related peptide fragment on streptavidin magnetic beads
T2 peptide: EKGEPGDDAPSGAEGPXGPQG
Nature of the experiment: told in words beside the Origen result.

In experiment [3] the target is T3, biotinylated peptide Bt-AEGPPGPQG (SEQ ID NO: 14).
T3 construct: also called biotinylated peptide 040; peptide 040
T3 peptide: Biotin-AEGPPGPQG
Nature of the experiment: BIAcore, biotinylated peptide SEQ ID NO: 14 on streptavidin chip. The procedure:
Positive wells in the ELISA were subjected to a second round of selection on the BIAcore™ system. Wells were sought that produced antibodies having slow off rates on the BIAcore™ system as determined using BIAevaluation™ version 2.1 software (Pharmacia Biosensor, Piscataway, N.J.). Streptavidin (Pierce Chemical) at 100 μg/ml was conjugated using the Pharmacia Amine Coupling Kit (Pharmacia Biosensor) to carboxylated dextran-coated biosensor chips (Pharmacia Biosensor) at a pH 4.0 using a flow rate of 5 μl/minute for 35 minutes. Typically, 2000 RU was added. Peptide (100 ng/ml) biotinylated on residue of 1 of SEQ ID NO: 14 as set forth in the Sequence Listing, was passed over the streptavidin chip at a flow rate of 100 μl/minute for 10 seconds. Candidate supernatants containing antibody were passed over the chip (2 μl/minute for 30 seconds) and the amount of added antibody noted. The buffer was changed to HBS (HEPES buffered saline, Pharmacia Biosensor), and the dissociation rate noted for the next 80 seconds. The chip was cleaned with 0.1 N HCl for 30 seconds between each run to remove residual antibody and to clear any nonspecific binding. The off-rates were determined using BIAevaluation™ kinetic analysis software version 2.1. Clones with the slowest off rates were selected for further analysis. These clones included 9A4, 11F2, and 3H10.
Binding to antigen was evaluated on the BlAcore™ system for both the p9A4lCAT7-1 and p9A4lF-5 scFv purified gene products as follows. A streptavidin chip was loaded with biotinylated peptide of SEQ ID NO: 14 as given in Example 1 above.

Experiment [4] addresses T3, biotinylated peptide Bt-AEGPPGPQG (SEQ …). Nature of the experiment: BIAcore, scFv over biotinylated peptide SEQ ID NO: 14 on streptavidin chip, dissociation 280 s. The method, then:
Off-rates for the scFv constructs were measured by analysis of dissociation data obtained on the BlAcore™ system (Pharmacia Biosensor) with BlAevaluation™ version 2.1 software. To obtain the data on the BlAcore™ system, streptavidin surfaces on the BlAcore™ chips were prepared as described previously in Example 1. Biotinylated peptide (SEQ ID NO: 14) was bound to the prepared streptavidin surfaces to RU densities ranging from about 2–11 RU's/surface. The lower level of derivatization would help avoid getting erroneous off-rates that could be obtained if mass transport was an issue. Purified scFv's were injected over these surfaces to allow binding of the constructs for 60 seconds. PBS buffer alone was then substituted and the dissociation of scFv was allowed to proceed for an additional 280 sec. Off-rates were calculated from these dissociation data.
For orientation: Surface plasmon resonance follows binding to a sensor surface in real time, without labels.

Substitutions are numbered along the chain they refer to. No end group written: not given here. *: point of attachment. Biotin = O=C1N[C@H]2[C@H](CS[C@H]2CCCCC(=O)*)N1

B1: monoclonal antibody 5109 (antibody, V domains shown)
VH: EVQLVESGGGSVQPGGSLKLSCAASGFTFNTYGMSWVRQTPDKRLEWVATINSNGGLTFYADSVKGRFTISRDNAKNTLYLQMNRLKSGDSGMYYCVRGYSNYARWGQGALVTVSA
VL: DVVMTQTPLTLSVTIGQSASISCKSSQSLLGSDGLTYLIWLLQRPGQSPKRLIFLVSELDSGVPDRFTGSGSGTDFTLKISRVEAEDLGVYYCCQGTHFPHTFGAGTKLELK
In the case of B1, the binding result in experiment [1] and in experiment [2] was “binds” throughout.

B2: monoclonal antibody 9A4 (antibody, V domains shown)
VH: QIQLVQSGPELKKPGETVKISCKASGYTFTDYSIHWVKQAPGKGLKWMGWINTETGEPTYADDFKGRFAFSLETSASTAYLQINNLKNEDTATYFCARGGSLDYWGQGTTLTVSS
VL: QIVLTQSPVFMSASPGEKVTMTCSASSSVSYMYWYQQKPGSSPRLLIHATSNLASGVPVRFSGGGSGTSYSLTISRMEAEDAATYYCQQWRSYTRTFGGGTKLEIIR
notes: also called mAb 9A4; 9A4 IgG
For orientation: Kd means the concentration at which binding is half-saturated. In general, koff refers to a measure of how fast the partners let go of each other. Consider B2, for which, in experiment [3], binding was characterised by a dissociation constant (Kd) of 120 nM and the koff came to 0.0176 s⁻¹.

B3: 9A4 scFv (VL-linker-VH-FLAG tag) from p9A4IF-5 (scFv)
scFv: QIVLTQSPVFMSASPGEKVTMTCSASSSVSYMYWYQQKPGSSPRLLIHATSNLASGVPVRFSGGGSGTSYSLTISRMEAEDAATYYCQQWRSYTRTFGGGTKLEIILSADDAKKDAAKKDDAKKDDAKKDLEIQLVQSGPELKKPGETVKISCKASGYTFTDYSIHWVKQAPGKGLKWMGWINTETGEPTYADDFKGRFAFSLETSASTAYLQINNLKNEDTATYFCARGGSLDYWGQGTTLTVSSASDYKDDDDK
notes: Monomer purified from E. coli; also called 9A4IF-5 scFv; p9A4lF-5
On to B3, for which the koff in experiment [4] worked out at 0.0048 s⁻¹. The molecule also registered a Kd in experiment [3] of 110 nM.

B4: 9A4 scFv (VH-linker-VL-HIS-MYC tags) from p9A4ICAT7-1 (scFv)
scFv: QIQLVQSGPELKKPGETVKISCKASGYTFTDYSIHWVKQAPGKGLKWMGWINTETGEPTYADDFKGRFAFSLETSASTAYLQINNLKNEDTATYFCARGGSLDYWGQGTTLTVSSGGGGSGGGGSGGGGSQIVLTQSPVFMSASPGEKVTMTCSASSSVSYMYWYQQKPGSSPRLLIHATSNLASGVPVRFSGGGSGTSYSLTISRMEAEDAATYYCQQWRSYTRTFGGGTKLEIIAAAHHHHHHGAAEQKLISEEDLNGAA
notes: Monomer purified from E. coli TG1; also called 9A4ICAT7-1 scFv; p9A4lCAT7-1
On to B4, for which the results for the koff in experiment [4] and in experiment [3] were 0.003 s⁻¹ and 0.0012 s⁻¹, respectively.

B5: 9A4 scFv CDR3 VH mutant clone 15A (scFv)
scFv: B4 scFv with S101R
notes: Derived from p9A4ICAT7-1
Turning to B5, in experiment [4], the koff was found to be 0.0035 s⁻¹.

B6: 9A4 scFv CDR3 VH mutant clone 18E (scFv)
scFv: B4 scFv with Y104V
notes: Derived from p9A4ICAT7-1
For the molecule B6, the off-rate (koff) in experiment [4] was 0.014 s⁻¹.

B7: 9A4 scFv CDR3 VH mutant clone 8D (scFv)
scFv: B4 scFv with Y104N
notes: Derived from p9A4ICAT7-1
In experiment [4], B7 returned a koff of 0.0104 s⁻¹.

B8: 9A4 scFv CDR3 VH mutant clone 10C (scFv)
scFv: B4 scFv with A97G, W105C
notes: Derived from p9A4ICAT7-1
B8 yielded a koff in experiment [4] of 0.0094 s⁻¹.

B9: 9A4 scFv CDR3 VH mutant clone 24A (scFv)
scFv: B4 scFv with A97G, D103E
notes: Derived from p9A4ICAT7-1
In experiment [4], B9 had an off-rate (koff) of 0.0025 s⁻¹.

B10: 9A4 scFv CDR3 VH mutant clone 20B (scFv)
scFv: B4 scFv with A97G, S101N, Y104H, W105C
notes: Derived from p9A4ICAT7-1
B10 gave an off-rate (koff) in experiment [4] of 0.0028 s⁻¹.

B11: 9A4 scFv CDR3 VH mutant clone 13G (scFv)
scFv: B4 scFv with A97G, Y104N
notes: Derived from p9A4ICAT7-1
The molecule B11 gave an off-rate constant (koff) in experiment [4] of 0.0103 s⁻¹.

B12: 9A4 scFv CDR3 VH mutant clone 5C (scFv)
scFv: B4 scFv with Y104S
notes: Derived from p9A4ICAT7-1
B12 yielded a koff in experiment [4] of 0.0025 s⁻¹.

B13: 9A4 scFv CDR3 VH mutant clone 14B (scFv)
scFv: B4 scFv with Y104H
notes: Derived from p9A4ICAT7-1
With B13, in experiment [4], the koff was determined as 0.0027 s⁻¹.

B14: 9A4 scFv CDR3 VH mutant clone 38B (scFv)
scFv: B4 scFv with A97G, Y104S, W105C
notes: Derived from p9A4ICAT7-1
For the molecule B14, the koff in experiment [4] came out at 0.0026 s⁻¹.
